Experimental data: US9260500B2, “Peptide and use thereof” (Takeda Pharmaceutical Company Limited, priority 2009, dated 2016)
Non-standard residues stand in square brackets, D forms with d. No end group written: not given here. *: point of attachment. 4Pal = N[C@@H](Cc1ccncc1)C(=O)O; Cha = N[C@@H](CC1CCCCC1)C(=O)O; dIva = CC[C@@](C)(N)C(=O)O; Isobutyryl = CC(C)C(=O)*; Iva = CC[C@](C)(N)C(=O)O; NMeA = CN[C@@H](C)C(=O)O; Abu = CC[C@H](N)C(=O)O; Nar = not defined here; Nleu = CC(C)CNCC(=O)O; Aib = CC(C)(N)C(=O)O; Bz = O=C(c1ccccc1)*; Sar = CNCC(=O)O

Legend:
[1] = biological target: T1, human Y2 receptor (Homo sapiens, UniProt P49146); experiment: Receptor Binding Assay (RBA) for Human Y2, [125I]-PYY displacement on hY2R/CHO membrane fraction; conditions: IC50 of test compound/IC50 of PYY(3-36) (PYY(3-36) taken as 1)
T1 construct: expressed in transfected cells; membrane fraction
T1 sequence (P49146 1-381): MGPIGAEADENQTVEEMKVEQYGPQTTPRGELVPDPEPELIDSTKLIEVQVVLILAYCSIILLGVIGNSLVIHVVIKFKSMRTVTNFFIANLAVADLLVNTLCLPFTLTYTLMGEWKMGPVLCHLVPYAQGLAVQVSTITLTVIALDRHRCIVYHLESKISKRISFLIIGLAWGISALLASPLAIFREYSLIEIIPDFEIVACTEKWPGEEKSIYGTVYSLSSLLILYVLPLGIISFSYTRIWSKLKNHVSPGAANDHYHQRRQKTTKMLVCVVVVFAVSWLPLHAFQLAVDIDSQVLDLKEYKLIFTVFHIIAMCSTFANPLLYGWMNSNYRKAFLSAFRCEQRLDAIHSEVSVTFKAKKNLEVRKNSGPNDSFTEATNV
Protocol: (1) Construction of Expression Plasmid for the Human Y2 Receptor (Y2R) Gene
PCR was performed by a reaction using Pfu DNA polymerase ([…]), with a human brain cDNA (PT3158-1, Clontech) as the template, wherein synthetic DNAs with the following sequences were used as a combination of 5′ and 3′ primers, whereby the human Y2R gene was cloned. Primer 1 was prepared on the basis of base sequence information on the human Y2R gene (Refseq ID No. NM_000910) with the addition of Kozak's consensus sequence. Primer 2 was prepared on the basis of base sequence information on the human Y2R gene.
The PCR product obtained was cloned into pCR4-Blunt-TOPO (Invitrogen), and the plasmid was extracted according to a conventional method (QIAwell 8 Plus, QIAGEN). After confirming the base sequence, the human Y2R gene was re-cloned by a PCR reaction with the plasmid DNA as the template, using Primer 1 as the 5′ primer and Primer 2 as the 3′ primer. The PCR was performed using the Pyrobest DNA polymerase (TaKaRa). The PCR product obtained was re-cloned into pCR-Blunt II-TOPO (Invitrogen), and the plasmid was extracted according to a conventional method (QIAGEN). An Xho I restriction enzyme digestion site and an Spe I restriction enzyme digestion site are present in the cloning site of the pCR-Blunt II-TOPO; a plasmid clone was selected wherein the human Y2R gene was inserted in the orientation such that the Xho I restriction enzyme digestion site was positioned upstream of Primer 1, and the Spe I restriction enzyme digestion site was positioned downstream of Primer 2. After confirming the base sequence, the plasmid clone was digested with the restriction enzymes Xho I and Spe I to yield a DNA fragment. The DNA fragment was inserted into the animal cell expression vector pAKKO-111H (the same plasmid as pAKKO-1.111H described in Biochem. Biophys. Acta, Hinuma, S. et al., 1219, 251-259 (1994)), which was enzymatically digested with Sal I and Spe I, to yield the expression plasmid pAK-hY2R (pAKKO-111H/Y2R).
(2) Test Method: Receptor Binding Assay (RBA) for Human Y2
A human NPY2R (hY2R) stable expression cell line was acquired by transducing the animal cell expression plasmid pAK-hY2R into CHO/dhfr-cells using the CellPhect Transfection kit (Amersham Pharmacia Biotech Co.). First, 240 μl of Buffer A (attached to the CellPhect Transfection kit) was added to 9.6 μg of the plasmid DNA dissolved in 240 μl of distilled water; this mixture was stirred and allowed to stand for 10 minutes, after which 480 μL of Buffer B (attached to the CellPhect Transfection kit) was added, and the mixture was vigorously stirred to form a liposome containing the DNA. 2.5×10^5 or 4×10^5 CHO/dhfr− cells (obtained from ATCC) were seeded to 60 mm petri dishes, and cultured in Ham's F-12 medium (Sigma Co.) containing 10% fetal bovine serum (BioWest Co.) at 37° C. in 5% gaseous carbon dioxide for 1 day, after which 480 μL of the liposome was added drop by drop on to the cells in each petri dish. This was cultured at 37° C. in 5% gaseous carbon dioxide for 6 hours, after which the cells were twice washed with serum-free Ham's F-12 medium; 3 mL of 15% glycerol was added onto the cells in the petri dish and treated for 2 minutes. This was again washed 3 times with serum-free Ham's F-12 medium, after which the cells were cultured in Ham's F-12 medium containing 10% fetal bovine serum at 37° C. in 5% gaseous carbon dioxide. The cells were dispersed by trypsinization and recovered from the petri dishes, and seeded to a 6-well plate at 2.5×10^4 or 4×10^4 cells per well; cultivation was begun in Dulbecco's modified Eagle medium <DMEM> medium (Sigma Co.) containing dialyzed 10% fetal bovine serum (Invitrogen Co.) at 37° C. in 5% gaseous carbon dioxide. Since plasmid-introduced transformant CHO cells grow in the medium, whereas cells without plasmid introduction die gradually, about 20 colonies of transformed CHO cell that had grown 9-13 days after the start of the cultivation were isolated. […]

[2] = biological target: T1, human Y2 receptor; experiment: Human Y2 Receptor G Protein Binding Assay (GBA), [35S]GTPγS; format: biochemical; conditions: EC50 of test compound/EC50 of PYY(3-36) (PYY3-36 taken as 1), hY2R/CHO membrane fraction
Protocol: (3) Test Method: Human Y2 Receptor G Protein Binding Assay (GBA)
The agonist activity of the compound of the present invention against the human Y2 receptor was measured by the method described below.
2 μL of the test compound, serially diluted with DMSO from 100 μM to 1 nM, was dispensed to a 96-well plate, and 100 μL of the membrane fraction, previously diluted with an assay buffer (50 mM Tris, 5 mM MgCl2, 150 mM NaCl, […], 0.03% NaN3, 0.1% BSA, pH 7.4) to 1 μg protein/mL, was dispensed thereto, subsequently, 100 μL of a [^35S]GTPγS (NEG030H, PerkinElmer, previously diluted with the assay buffer to 1 nM) was added, and they were mixed by pipetting. After incubation at room temperature for 120 minutes, the mixture was filtered through the cell harvester FilterMate (PerkinElmer) using the UniFilter-96 GF/C (PerkinElmer), and the filter was washed 3 times with a filtering buffer (50 mM Tris, 5 mM MgCl2, 150 mM NaCl, 0.03% NaN3, 0.05% CHAPS, pH 7.4). Thereafter, UniFilter-96 GF/C was dried in a mechanical drier for 1 hour, 15 μl of the liquid scintillator MicroScint O (PerkinElmer) was added to each well, and a measurement was taken using TopCount (PerkinElmer). The data obtained were analyzed using Prism to calculate the EC50 value. The agonist activity of the test compound was expressed as a ratio to the EC50 value of PYY3-36 taken as 1 (EC50 Ratio: EC50 of test compound/EC50 of PYY(3-36)). The results are shown in the GBA column in Table 5 (Table 5-1-Table 5-10).

Row | RBA IC50 Ratio [1] | GBA EC50 Ratio [2] | Substance
1 | 26 | 28 | Isobutanoyl-[Abu26, Cha27,28,36, Ser30, Aib31]-PYY(25-36) (Isobutyryl-R[Abu][Cha][Cha]NS[Aib]TRQR[Cha]-NH2; SMILES CC[C@H](NC(=O)[C@H](CCCNC(=N)N)NC(=O)C(C)C)C(=O)N[C@@H](CC1CCCCC1)C(=O)N[C@@H](CC1CCCCC1)C(=O)N[C@@H](CC(N)=O)C(=O)N[C@@H](CO)C(=O)NC(C)(C)C(=O)N[C@H](C(=O)N[C@@H](CCCNC(=N)N)C(=O)N[C@@H](CCC(N)=O)C(=O)N[C@@H](CCCNC(=N)N)C(=O)N[C@@H](CC1CCCCC1)C(N)=O)[C@@H](C)O) [compound No. 89]
2 | 2.8 | 2.2 | Ac-[D-Pro24, Cit25, Pya(4)26, Cha27,36, Aib28,31, Lys30]-PYY(23-36) [compound No. 225]
3 | 71 | 37 | Ac-[D-Pro24, Cha27,28,36, D-Iva29, Aib31]-PYY(23-36) (Ac-S[dP]RH[Cha][Cha][dIva]L[Aib]TRQR[Cha]-NH2; SMILES CC[C@@](C)(NC(=O)[C@H](CC1CCCCC1)NC(=O)[C@H](CC1CCCCC1)NC(=O)[C@H](Cc1c[nH]cn1)NC(=O)[C@H](CCCNC(=N)N)NC(=O)[C@H]1CCCN1C(=O)[C@H](CO)NC(C)=O)C(=O)N[C@@H](CC(C)C)C(=O)NC(C)(C)C(=O)N[C@H](C(=O)N[C@@H](CCCNC(=N)N)C(=O)N[C@@H](CCC(N)=O)C(=O)N[C@@H](CCCNC(=N)N)C(=O)N[C@@H](CC1CCCCC1)C(N)=O)[C@@H](C)O) [compound No. 179]
4 | 5.8 | 2.4 | [N(iBu)Gly23, D-Pro24, Cha27,28,36, Aib31]-PYY(23-36) ([Nleu][dP]RH[Cha][Cha]NL[Aib]TRQR[Cha]-NH2; N-terminus assumed; SMILES CC(C)CNCC(=O)N1CCC[C@@H]1C(=O)N[C@@H](CCCNC(=N)N)C(=O)N[C@@H](Cc1c[nH]cn1)C(=O)N[C@@H](CC1CCCCC1)C(=O)N[C@@H](CC1CCCCC1)C(=O)N[C@@H](CC(N)=O)C(=O)N[C@@H](CC(C)C)C(=O)NC(C)(C)C(=O)N[C@H](C(=O)N[C@@H](CCCNC(=N)N)C(=O)N[C@@H](CCC(N)=O)C(=O)N[C@@H](CCCNC(=N)N)C(=O)N[C@@H](CC1CCCCC1)C(N)=O)[C@@H](C)O) [compound No. 133]
5 | 6.6 | 5.3 | Ac-[D-Ser23, Sar24, Cha27,28,36, Aib31]-PYY(23-36) (Ac-[dS][Sar]RH[Cha][Cha]NL[Aib]TRQR[Cha]-NH2; SMILES CC(=O)N[C@H](CO)C(=O)N(C)CC(=O)N[C@@H](CCCNC(=N)N)C(=O)N[C@@H](Cc1c[nH]cn1)C(=O)N[C@@H](CC1CCCCC1)C(=O)N[C@@H](CC1CCCCC1)C(=O)N[C@@H](CC(N)=O)C(=O)N[C@@H](CC(C)C)C(=O)NC(C)(C)C(=O)N[C@H](C(=O)N[C@@H](CCCNC(=N)N)C(=O)N[C@@H](CCC(N)=O)C(=O)N[C@@H](CCCNC(=N)N)C(=O)N[C@@H](CC1CCCCC1)C(N)=O)[C@@H](C)O) [compound No. 111]
6 | 1.1 | 1.8 | Ac-[D-Pro24, Nar25, Pya(4)26, Cha27,36, Aib28,31, Lys30]-PYY(23-36) (Ac-S[dP][Nar][4Pal][Cha][Aib]NK[Aib]TRQR[Cha]-NH2; reading uncertain) [compound No. 290]
7 | 13 | 6.0 | Benzoyl-[Ser26, Cha27,28,36, Aib31]-PYY(25-36) (Bz-RS[Cha][Cha]NL[Aib]TRQR[Cha]-NH2; SMILES CC(C)C[C@H](NC(=O)[C@H](CC(N)=O)NC(=O)[C@H](CC1CCCCC1)NC(=O)[C@H](CC1CCCCC1)NC(=O)[C@H](CO)NC(=O)[C@H](CCCNC(=N)N)NC(=O)c1ccccc1)C(=O)NC(C)(C)C(=O)N[C@H](C(=O)N[C@@H](CCCNC(=N)N)C(=O)N[C@@H](CCC(N)=O)C(=O)N[C@@H](CCCNC(=N)N)C(=O)N[C@@H](CC1CCCCC1)C(N)=O)[C@@H](C)O) [compound No. 97]
8 | 6.1 | 5.1 | Ac-[D-Ser23, MeAla24, Cha27,28,36, Aib31]-PYY(23-36) (Ac-[dS][NMeA]RH[Cha][Cha]NL[Aib]TRQR[Cha]-NH2; SMILES CC(=O)N[C@H](CO)C(=O)N(C)[C@@H](C)C(=O)N[C@@H](CCCNC(=N)N)C(=O)N[C@@H](Cc1c[nH]cn1)C(=O)N[C@@H](CC1CCCCC1)C(=O)N[C@@H](CC1CCCCC1)C(=O)N[C@@H](CC(N)=O)C(=O)N[C@@H](CC(C)C)C(=O)NC(C)(C)C(=O)N[C@H](C(=O)N[C@@H](CCCNC(=N)N)C(=O)N[C@@H](CCC(N)=O)C(=O)N[C@@H](CCCNC(=N)N)C(=O)N[C@@H](CC1CCCCC1)C(N)=O)[C@@H](C)O) [compound No. 109]
9 | 0.85 | 2.1 | Ac-[D-Pro24, Pya(4)26, Cha27,36, Aib28, Lys30, Iva31]-PYY(23-36) (Ac-S[dP]R[4Pal][Cha][Aib]NK[Iva]TRQR[Cha]-NH2; SMILES CC[C@](C)(NC(=O)[C@H](CCCCN)NC(=O)[C@H](CC(N)=O)NC(=O)C(C)(C)NC(=O)[C@H](CC1CCCCC1)NC(=O)[C@H](Cc1ccncc1)NC(=O)[C@H](CCCNC(=N)N)NC(=O)[C@H]1CCCN1C(=O)[C@H](CO)NC(C)=O)C(=O)N[C@H](C(=O)N[C@@H](CCCNC(=N)N)C(=O)N[C@@H](CCC(N)=O)C(=O)N[C@@H](CCCNC(=N)N)C(=O)N[C@@H](CC1CCCCC1)C(N)=O)[C@@H](C)O) [compound No. 231]
